Columns and labels:
Settings in all cases: partners not purified
mCherry-JUND = target: T1, mCherry-JUND (UniProt P17535 1-347); experiment: fluorescence cross-correlation spectroscopy (FCCS); lysate of co-transfected HeLa cells; 20 mM Tris-HCl pH 7.5, 140 mM KCl, 1.5 mM MgCl2, 1 mM DTT, 0.5% NP-40; lysed at room temperature; cross-correlation/autocorrelation ratio
T1 construct: JUND; the construct is not described in the methods; also called JunD Proto-Oncogene; source: HeLa, transfected, in lysate
T1 sequence (looked up): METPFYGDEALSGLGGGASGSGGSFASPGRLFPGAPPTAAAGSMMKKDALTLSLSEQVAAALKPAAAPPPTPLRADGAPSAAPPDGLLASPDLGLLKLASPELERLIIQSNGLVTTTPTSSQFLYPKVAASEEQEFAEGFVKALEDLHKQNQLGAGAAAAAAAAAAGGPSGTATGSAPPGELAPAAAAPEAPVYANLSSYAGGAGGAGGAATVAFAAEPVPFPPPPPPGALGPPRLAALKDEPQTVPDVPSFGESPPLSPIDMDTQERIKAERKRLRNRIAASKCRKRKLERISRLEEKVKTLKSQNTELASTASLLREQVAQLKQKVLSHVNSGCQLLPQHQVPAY

mCherry-RBBP8 = target: T2, mCherry-RBBP8 (UniProt Q99708 1-897); experiment: fluorescence cross-correlation spectroscopy (FCCS); GFP- and mCherry-tagged proteins co-expressed in live HeLa cells; focal volume in the nucleoplasm (MSH2-MSH6 also in the cytoplasm); room temperature; cross-correlation/autocorrelation ratio
T2 construct: also called mCherry-RBBP8/CtIP; CtIP; source: HeLa, transfected, in live cells and in lysate

mCherry-BARD1 = target: T3, mCherry-BARD1 (UniProt Q99728 1-777); experiment: fluorescence cross-correlation spectroscopy (FCCS); lysate of co-transfected HeLa cells; 20 mM Tris-HCl pH 7.5, 140 mM KCl, 1.5 mM MgCl2, 1 mM DTT, 0.5% NP-40; lysed at room temperature; cross-correlation/autocorrelation ratio
T3 construct: also called BRCA1 Associated RING Domain 1; source: HeLa, transfected, in live cells and in lysate
T3 sequence (looked up): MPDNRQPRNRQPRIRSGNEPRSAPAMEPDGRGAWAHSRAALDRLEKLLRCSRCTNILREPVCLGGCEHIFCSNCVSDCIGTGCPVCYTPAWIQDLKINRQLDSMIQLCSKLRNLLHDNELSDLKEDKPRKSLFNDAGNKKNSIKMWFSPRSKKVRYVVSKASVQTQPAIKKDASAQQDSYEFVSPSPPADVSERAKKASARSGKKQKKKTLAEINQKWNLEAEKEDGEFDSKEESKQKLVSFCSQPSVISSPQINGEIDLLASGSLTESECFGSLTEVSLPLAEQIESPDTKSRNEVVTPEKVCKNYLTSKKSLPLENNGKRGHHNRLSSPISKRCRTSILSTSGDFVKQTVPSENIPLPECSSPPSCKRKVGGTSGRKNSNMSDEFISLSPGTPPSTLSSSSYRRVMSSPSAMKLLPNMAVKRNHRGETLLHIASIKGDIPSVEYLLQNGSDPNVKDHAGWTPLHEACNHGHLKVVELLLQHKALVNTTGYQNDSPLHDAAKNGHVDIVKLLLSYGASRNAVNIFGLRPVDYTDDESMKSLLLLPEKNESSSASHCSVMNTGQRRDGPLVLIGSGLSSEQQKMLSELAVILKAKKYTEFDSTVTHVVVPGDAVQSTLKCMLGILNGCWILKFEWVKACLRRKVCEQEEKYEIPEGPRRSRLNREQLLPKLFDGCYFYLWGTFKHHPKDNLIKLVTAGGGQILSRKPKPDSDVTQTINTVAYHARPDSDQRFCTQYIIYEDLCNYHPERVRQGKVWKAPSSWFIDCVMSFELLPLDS

T2 sequence (Q99708 whole entry): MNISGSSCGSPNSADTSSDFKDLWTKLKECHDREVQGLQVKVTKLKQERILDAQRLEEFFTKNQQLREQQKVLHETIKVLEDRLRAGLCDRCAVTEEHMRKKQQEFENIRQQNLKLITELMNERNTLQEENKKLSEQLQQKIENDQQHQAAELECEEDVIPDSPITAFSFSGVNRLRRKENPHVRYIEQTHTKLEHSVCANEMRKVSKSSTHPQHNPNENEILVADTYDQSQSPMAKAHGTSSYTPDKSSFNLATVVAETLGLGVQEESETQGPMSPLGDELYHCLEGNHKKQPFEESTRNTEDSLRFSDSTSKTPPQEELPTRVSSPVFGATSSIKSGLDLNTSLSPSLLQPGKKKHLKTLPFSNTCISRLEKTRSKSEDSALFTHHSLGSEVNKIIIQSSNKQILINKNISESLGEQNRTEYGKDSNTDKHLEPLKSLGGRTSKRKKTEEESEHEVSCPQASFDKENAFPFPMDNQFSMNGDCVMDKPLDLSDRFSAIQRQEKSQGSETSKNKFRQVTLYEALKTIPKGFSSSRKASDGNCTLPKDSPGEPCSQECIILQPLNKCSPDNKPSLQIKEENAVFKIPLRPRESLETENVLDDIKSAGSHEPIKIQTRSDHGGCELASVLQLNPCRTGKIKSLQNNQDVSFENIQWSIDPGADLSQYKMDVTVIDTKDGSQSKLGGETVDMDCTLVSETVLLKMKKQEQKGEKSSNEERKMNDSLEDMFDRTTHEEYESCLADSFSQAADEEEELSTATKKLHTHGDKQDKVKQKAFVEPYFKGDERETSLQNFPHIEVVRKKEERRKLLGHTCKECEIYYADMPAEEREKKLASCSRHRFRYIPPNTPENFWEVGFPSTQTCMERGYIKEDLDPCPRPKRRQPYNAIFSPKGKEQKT

B1: GFP-Menin (natural protein, UniProt O00255 1-610, looked up)
chain: MGLKAAQKTLFPLRSIDDVVRLFAAELGREEPDLVLLSLVLGFVEHFLAVNRVIPTNVPELTFQPSPAPDPPGGLTYFPVADLSIIAALYARFTAQIRGAVDLSLYPREGGVSSRELVKKVSDVIWNSLSRSYFKDRAHIQSLFSFITGTKLDSSGVAFAVVGACQALGLRDVHLALSEDHAWVVFGPNGEQTAEVTWHGKGNEDRRGQTVNAGVAERSWLYLKGSYMRCDRKMEVAFMVCAINPSIDLHTDSLELLQLQQKLLWLLYDLGHLERYPMALGNLADLEELEPTPGRPDPLTLYHKGIASAKTYYRDEHIYPYMYLAGYHCRNRNVREALQAWADTATVIQDYNYCREDEEIYKEFFEVANDVIPNLLKEAASLLEAGEERPGEQSQGTQSQGSALQDPECFAHLLRFYDGICKWEEGSPTPVLHVGWATFLVQSLGRFEGQVRQKVRIVSREAEAAEAEEPWGEEAREGRRRGPRRESKPEEPPPPKKPALDKGLGTGQGAVSGPPRKPPGTVAGTARGPEGGSTAQVPAPTASPPPEGPVLTFQSEKMKGMKELLVATKINSSAIKLQLTAQSQVQMKKQKVSTPSDYTLSFLKRQRKGL
notes: Menin (MEN1); the construct and its isoform are not described in the methods; also called MEN1 factor Menin; source: HeLa, transfected, in lysate
cross-correlation (mCherry-JUND): 21%

B2: GFP-Menin A242V (natural protein, UniProt O00255 1-610, looked up)
chain: MGLKAAQKTLFPLRSIDDVVRLFAAELGREEPDLVLLSLVLGFVEHFLAVNRVIPTNVPELTFQPSPAPDPPGGLTYFPVADLSIIAALYARFTAQIRGAVDLSLYPREGGVSSRELVKKVSDVIWNSLSRSYFKDRAHIQSLFSFITGTKLDSSGVAFAVVGACQALGLRDVHLALSEDHAWVVFGPNGEQTAEVTWHGKGNEDRRGQTVNAGVAERSWLYLKGSYMRCDRKMEVAFMVCVINPSIDLHTDSLELLQLQQKLLWLLYDLGHLERYPMALGNLADLEELEPTPGRPDPLTLYHKGIASAKTYYRDEHIYPYMYLAGYHCRNRNVREALQAWADTATVIQDYNYCREDEEIYKEFFEVANDVIPNLLKEAASLLEAGEERPGEQSQGTQSQGSALQDPECFAHLLRFYDGICKWEEGSPTPVLHVGWATFLVQSLGRFEGQVRQKVRIVSREAEAAEAEEPWGEEAREGRRRGPRRESKPEEPPPPKKPALDKGLGTGQGAVSGPPRKPPGTVAGTARGPEGGSTAQVPAPTASPPPEGPVLTFQSEKMKGMKELLVATKINSSAIKLQLTAQSQVQMKKQKVSTPSDYTLSFLKRQRKGL
notes: Menin (MEN1) with the variant; construct and isoform not described; source: HeLa, transfected, in lysate
binding relative to wild type (mCherry-JUND): ~50%

B3: GFP-Menin A237V (natural protein, UniProt O00255 1-610, looked up)
chain: MGLKAAQKTLFPLRSIDDVVRLFAAELGREEPDLVLLSLVLGFVEHFLAVNRVIPTNVPELTFQPSPAPDPPGGLTYFPVADLSIIAALYARFTAQIRGAVDLSLYPREGGVSSRELVKKVSDVIWNSLSRSYFKDRAHIQSLFSFITGTKLDSSGVAFAVVGACQALGLRDVHLALSEDHAWVVFGPNGEQTAEVTWHGKGNEDRRGQTVNAGVAERSWLYLKGSYMRCDRKMEVVFMVCAINPSIDLHTDSLELLQLQQKLLWLLYDLGHLERYPMALGNLADLEELEPTPGRPDPLTLYHKGIASAKTYYRDEHIYPYMYLAGYHCRNRNVREALQAWADTATVIQDYNYCREDEEIYKEFFEVANDVIPNLLKEAASLLEAGEERPGEQSQGTQSQGSALQDPECFAHLLRFYDGICKWEEGSPTPVLHVGWATFLVQSLGRFEGQVRQKVRIVSREAEAAEAEEPWGEEAREGRRRGPRRESKPEEPPPPKKPALDKGLGTGQGAVSGPPRKPPGTVAGTARGPEGGSTAQVPAPTASPPPEGPVLTFQSEKMKGMKELLVATKINSSAIKLQLTAQSQVQMKKQKVSTPSDYTLSFLKRQRKGL
notes: as for B2
binding relative to wild type (mCherry-JUND): ~50%

B4: GFP-BRCA1 p.Thr1684Ala (natural protein, UniProt P38398 1-1863, looked up)
chain: MDLSALRVEEVQNVINAMQKILECPICLELIKEPVSTKCDHIFCKFCMLKLLNQKKGPSQCPLCKNDITKRSLQESTRFSQLVEELLKIICAFQLDTGLEYANSYNFAKKENNSPEHLKDEVSIIQSMGYRNRAKRLLQSEPENPSLQETSLSVQLSNLGTVRTLRTKQRIQPQKTSVYIELGSDSSEDTVNKATYCSVGDQELLQITPQGTRDEISLDSAKKAACEFSETDVTNTEHHQPSNNDLNTTEKRAAERHPEKYQGSSVSNLHVEPCGTNTHASSLQHENSSLLLTKDRMNVEKAEFCNKSKQPGLARSQHNRWAGSKETCNDRRTPSTEKKVDLNADPLCERKEWNKQKLPCSENPRDTEDVPWITLNSSIQKVNEWFSRSDELLGSDDSHDGESESNAKVADVLDVLNEVDEYSGSSEKIDLLASDPHEALICKSERVHSKSVESNIEDKIFGKTYRKKASLPNLSHVTENLIIGAFVTEPQIIQERPLTNKLKRKRRPTSGLHPEDFIKKADLAVQKTPEMINQGTNQTEQNGQVMNITNSGHENKTKGDSIQNEKNPNPIESLEKESAFKTKAEPISSSISNMELELNIHNSKAPKKNRLRRKSSTRHIHALELVVSRNLSPPNCTELQIDSCSSSEEIKKKKYNQMPVRHSRNLQLMEGKEPATGAKKSNKPNEQTSKRHDSDTFPELKLTNAPGSFTKCSNTSELKEFVNPSLPREEKEEKLETVKVSNNAEDPKDLMLSGERVLQTERSVESSSISLVPGTDYGTQESISLLEVSTLGKAKTEPNKCVSQCAAFENPKGLIHGCSKDNRNDTEGFKYPLGHEVNHSRETSIEMEESELDAQYLQNTFKVSKRQSFAPFSNPGNAEEECATFSAHSGSLKKQSPKVTFECEQKEENQGKNESNIKPVQTVNITAGFPVVGQKDKPVDNAKCSIKGGSRFCLSSQFRGNETGLITPNKHGLLQNPYRIPPLFPIKSFVKTKCKKNLLEENFEEHSMSPEREMGNENIPSTVSTISRNNIRENVFKEASSSNINEVGSSTNEVGSSINEIGSSDENIQAELGRNRGPKLNAMLRLGVLQPEVYKQSLPGSNCKHPEIKKQEYEEVVQTVNTDFSPYLISDNLEQPMGSSHASQVCSETPDDLLDDGEIKEDTSFAENDIKESSAVFSKSVQKGELSRSPSPFTHTHLAQGYRRGAKKLESSEENLSSEDEELPCFQHLLFGKVNNIPSQSTRHSTVATECLSKNTEENLLSLKNSLNDCSNQVILAKASQEHHLSEETKCSASLFSSQCSELEDLTANTNTQDPFLIGSSKQMRHQSESQGVGLSDKELVSDDEERGTGLEENNQEEQSMDSNLGEAASGCESETSVSEDCSGLSSQSDILTTQQRDTMQHNLIKLQQEMAELEAVLEQHGSQPSNSYPSIISDSSALEDLRNPEQSTSEKAVLTSQKSSEYPISQNPEGLSADKFEVSADSSTSKNKEPGVERSSPSKCPSLDDRWYMHSCSGSLQNRNYPSQEELIKVVDVEEQQLEESGPHDLTETSYLPRQDLEGTPYLESGISLFSDDPESDPSEDRAPESARVGNIPSSTSALKVPQLKVAESAQSPAAAHTTDTAGYNAMEESVSREKPELTASTERVNKRMSMVVSGLTPEEFMLVYKFARKHHITLTNLITEEATHVVMKTDAEFVCERTLKYFLGIAGGKWVVSYFWVTQSIKERKMLNEHDFEVRGDVVNGRNHQGPKRARESQDRKIFRGLEICCYGPFTNMPTDQLEWMVQLCGASVVKELSSFTLGTGVHPIVVVQPDAWTEDNGFHAIGQMCEAPVVTREWVLDSVALYQCQELDTYLIPQIPHSHY
notes: also called T1684A; source: HeLa, transfected, in live cells
reduction in binding relative to wild type (mCherry-RBBP8): ~50%

B5: GFP-RING (isolated BRCA1 RING domain, wild-type) (domain or fragment, UniProt P38398 1-109, looked up)
chain: MDLSALRVEEVQNVINAMQKILECPICLELIKEPVSTKCDHIFCKFCMLKLLNQKKGPSQCPLCKNDITKRSLQESTRFSQLVEELLKIICAFQLDTGLEYANSYNFAK
notes: BRCA1 amino acids 1-109 cloned into pEGFP-C1; also called EGFP-tagged RING trimmed domain; wild-type RING; source: HeLa, transfected, in lysate
cross-correlation (mCherry-BARD1): 25%

B6: GFP-RING D67Y (domain or fragment, UniProt P38398 1-109, looked up)
chain: MDLSALRVEEVQNVINAMQKILECPICLELIKEPVSTKCDHIFCKFCMLKLLNQKKGPSQCPLCKNYITKRSLQESTRFSQLVEELLKIICAFQLDTGLEYANSYNFAK
notes: BRCA1 amino acids 1-109 with the variant; also called D67Y variant (isolated RING domain); source: HeLa, transfected, in lysate
reduction in binding relative to wild type (mCherry-BARD1): 22%

B7: GFP-RING-T37K (domain or fragment, UniProt P38398 1-109, looked up)
chain: MDLSALRVEEVQNVINAMQKILECPICLELIKEPVSKKCDHIFCKFCMLKLLNQKKGPSQCPLCKNDITKRSLQESTRFSQLVEELLKIICAFQLDTGLEYANSYNFAK
notes: BRCA1 amino acids 1-109 with the variant; source: HeLa, transfected, in lysate
reduction in binding relative to wild type (mCherry-BARD1): 20%

B8: GFP-RING-T37R (domain or fragment, UniProt P38398 1-109, looked up)
chain: MDLSALRVEEVQNVINAMQKILECPICLELIKEPVSRKCDHIFCKFCMLKLLNQKKGPSQCPLCKNDITKRSLQESTRFSQLVEELLKIICAFQLDTGLEYANSYNFAK
notes: BRCA1 amino acids 1-109 with the variant; also called p.Thr37Arg; source: HeLa, transfected, in lysate
reduction in binding relative to wild type (mCherry-BARD1): 30%

From publication PMC12867984, “Functional assessment of protein variants in structured domains by fluorescence cross-correlation spectroscopy” (Scientific Reports, 2026)
